Values of other authors in article PMC1854907.
pKd: −log10 of the molar value.

Target: SCP2 PTS1 peptide (Homo sapiens)
Test: ITC

Pex5p(C) C-terminal domain (from UniProt P50542)
pKd: 6.18
